Details in all cases: remark: other sources report otherwise
For experiment [1], the target named is T1, ScHSP26 (Saccharomyces cerevisiae), P15992.
T1 chain: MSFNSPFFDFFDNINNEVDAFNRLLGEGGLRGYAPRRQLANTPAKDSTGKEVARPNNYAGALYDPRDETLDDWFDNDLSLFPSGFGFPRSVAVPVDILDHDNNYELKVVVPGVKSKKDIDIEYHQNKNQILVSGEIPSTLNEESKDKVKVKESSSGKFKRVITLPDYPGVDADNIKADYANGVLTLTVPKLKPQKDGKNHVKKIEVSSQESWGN
As to the kind of experiment: native MS.

Experiment [2] deals with T1, ScHSP26 (Saccharomyces cerevisiae), …. As to the kind of experiment: native MS.
The target is the same in experiment [3]. As to the kind of experiment: SEC-MALS. (In general: Size exclusion chromatography separates by hydrodynamic size, large species first.)
The target is the same in experiment [4]. As to the kind of experiment: native MS.
Experiment [5] has the same target. Briefly: native MS.
Experiment [6] shares this target. As to the kind of experiment: native MS.
Experiment [7] shares this target. As to the kind of experiment: native MS.
Experiment [8] shares this target. Briefly: native MS.

B1: ScHSP26, P15992 1-214 (natural protein)
chain: MSFNSPFFDFFDNINNEVDAFNRLLGEGGLRGYAPRRQLANTPAKDSTGKEVARPNNYAGALYDPRDETLDDWFDNDLSLFPSGFGFPRSVAVPVDILDHDNNYELKVVVPGVKSKKDIDIEYHQNKNQILVSGEIPSTLNEESKDKVKVKESSSGKFKRVITLPDYPGVDADNIKADYANGVLTLTVPKLKPQKDGKNHVKKIEVSSQESWGN
In general, stoichiometry N refers to a count of units in the complex or per binding partner. For B1, the stoichiometry N in experiment [1] was 2 subunits; in experiment [2], 2 subunits; in experiment [3] it was 34 subunits; in experiment [4] it was 32 to 42 subunits; in experiment [5] it was 40 subunits; in experiment [6], 2 subunits. Further, the stoichiometry N in experiment [7] was 24 to 42 subunits; in experiment [8], 40 subunits.

For the origin of these results see publication PMC3388541.
